± gives the standard error. Variants at the floor of the assay were thinned out.
B1: glmS ribozyme (parent)
chain: AUAAAAGCGCCAGAACUACAGAAAUGUAGUUGACGAGGAGGAGGUUUAUCGAAUUUUCGGCGGAUGCCUCCAAA

How the values were obtained:
Conditions in all cases: with glucosamine-6-phosphate
glucosamine-6-phosphate [1] = variants of: B1; assay: self-cleavage kobs at 40 uM GlcN6P; higher = faster cleavage; RNA array
In short: (§1)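 Using a hybridised Cy3 probe at 37 °C, barcoded ribozyme variants transcribed in situ by E. coli RNA polymerase on sequenced MiSeq chips were monitored across tiles imaged over ~14 h. The flow contained glucosamine-6-phosphate from 40 μM to 10 mM in HEPES/KCl/Mg(OAc)2 buffer. Signals were normalised to baseline and to non-cleaving reference variants before per-tile medians were fit to one- or two-exponential decays to yield kobs. Weighted Michaelis–Menten fits across concentrations gave kcat and KM.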

glucosamine-6-phosphate [2] = variants of: B1; assay: self-cleavage kobs at 10000 uM GlcN6P; higher = faster cleavage; RNA array
In short: as §1

glucosamine-6-phosphate [3] = variants of: B1; assay: self-cleavage kobs at 160 uM GlcN6P; higher = faster cleavage; RNA array
In short: as §1

glucosamine-6-phosphate [4] = variants of: B1; assay: self-cleavage kobs at 640 uM GlcN6P; higher = faster cleavage; RNA array
In short: as §1

glucosamine-6-phosphate [5] = variants of: B1; assay: self-cleavage kobs at 2500 uM GlcN6P; higher = faster cleavage; RNA array
In short: as §1

Variant	self-cleavage kobs at 40 uM GlcN6P (glucosamine-6-phosphate [1]) [s⁻¹]	self-cleavage kobs at 10000 uM GlcN6P (glucosamine-6-phosphate [2]) [s⁻¹]	self-cleavage kobs at 160 uM GlcN6P (glucosamine-6-phosphate [3]) [s⁻¹]	self-cleavage kobs at 640 uM GlcN6P (glucosamine-6-phosphate [4]) [s⁻¹]	self-cleavage kobs at 2500 uM GlcN6P (glucosamine-6-phosphate [5]) [s⁻¹]
A15U A33C A36C G37U G40C C58U	< 1e-05	< 1e-05			
U45C C58A	< 1e-05		< 1e-05		
G44A A64C	< 1e-05	< 1e-05		< 1e-05	< 1e-05
A36C G66A	< 1e-05	< 1e-05			
U31C C34U U65C	< 1e-05	< 1e-05			< 1e-05
A12U U30C C68A	< 1e-05				
C11U A33C A53U U57G G60U	< 1e-05	< 1e-05			
C68G	1.18e-05 ± 2.8e-06	0.000473 ± 9.9e-05		0.000523 ± 0.00014	9.11e-05 ± 1.8e-06
C8A U56A	< 1e-05	< 1e-05	< 1e-05	< 1e-05	< 1e-05
C16A G62U	< 1e-05		< 1e-05	< 1e-05	
G37U A52U U57A	< 1e-05				
G13U G35A U45A A64G	< 1e-05	< 1e-05		< 1e-05	< 1e-05
A6U U30C U56C	< 1e-05				
C8G U30G G60A	< 1e-05	< 1e-05			
C34A U65A	< 1e-05	< 1e-05			< 1e-05
A53U U54C C67A	0.000138 ± 2.9e-05	0.00429 ± 0.0016			
C11U A36G C50G	8.31e-05 ± 2.8e-05	4.94e-05 ± 1.5e-05		0.000352 ± 0.00014	
G43U G59C	< 1e-05	< 1e-05	< 1e-05	< 1e-05	< 1e-05
A6C G9U U47G	< 1e-05	< 1e-05			< 1e-05

Variant	self-cleavage kobs at 40 uM GlcN6P (glucosamine-6-phosphate [1]) [s⁻¹]	self-cleavage kobs at 10000 uM GlcN6P (glucosamine-6-phosphate [2]) [s⁻¹]	self-cleavage kobs at 160 uM GlcN6P (glucosamine-6-phosphate [3]) [s⁻¹]	self-cleavage kobs at 640 uM GlcN6P (glucosamine-6-phosphate [4]) [s⁻¹]	self-cleavage kobs at 2500 uM GlcN6P (glucosamine-6-phosphate [5]) [s⁻¹]
G13U G32U A36G G38C U54G	< 1e-05				
G29C G43U C67U	< 1e-05	< 1e-05			
C8U A48C	< 1e-05	< 1e-05		< 1e-05	
A48U C68A	< 1e-05			< 1e-05	
G37C U45C	< 1e-05		< 1e-05		
U30G G66A	0.000144 ± 3.9e-05				
C8U A52G G63U	< 1e-05	< 1e-05			
A36C G37U G51U	< 1e-05				
G32U A53G A64U	< 1e-05				
A14C G60U C71G	< 1e-05	< 1e-05			
G35C C71G	< 1e-05		< 1e-05	< 1e-05	
G35A U56C A64U	< 1e-05	< 1e-05		< 1e-05	
G7A A15C C50U C70A	0.000237 ± 4.9e-05				
C34A A52U	< 1e-05	< 1e-05		< 1e-05	
C8A G29A G51U	< 1e-05	< 1e-05			
G13C G32C U57G C70G	7.16e-05 ± 2.4e-05	9.13e-05 ± 1.7e-05			
C8A G59C	< 1e-05			< 1e-05	< 1e-05
C11U G60C	< 1e-05	< 1e-05	< 1e-05		
A6G A36C C71U	< 1e-05	< 1e-05			

Variant	self-cleavage kobs at 40 uM GlcN6P (glucosamine-6-phosphate [1]) [s⁻¹]	self-cleavage kobs at 10000 uM GlcN6P (glucosamine-6-phosphate [2]) [s⁻¹]	self-cleavage kobs at 160 uM GlcN6P (glucosamine-6-phosphate [3]) [s⁻¹]	self-cleavage kobs at 640 uM GlcN6P (glucosamine-6-phosphate [4]) [s⁻¹]	self-cleavage kobs at 2500 uM GlcN6P (glucosamine-6-phosphate [5]) [s⁻¹]
A6G C71A	< 1e-05		< 1e-05		
C8G C16A A42U U65A	< 1e-05	< 1e-05			
U31A G51A U56A C58U G63U U65G	< 1e-05				
A33U A48G A52U	< 1e-05				
A15G C16U A52U U57A G59U	< 1e-05	< 1e-05	< 1e-05		
U57C G62U C70A	< 1e-05				
G13C A39G A64U	< 1e-05				< 1e-05
G41C G43A C50G C67A U69C	< 1e-05				
U46G C68G C71G	9.54e-05 ± 3.1e-05				
C8U U57G	< 1e-05				< 1e-05
U49A U57G	< 1e-05			< 1e-05	
U45G C50A	< 1e-05				
G7U A36G	< 1e-05	< 1e-05		< 1e-05	< 1e-05
A15U U31C C50G	5.26e-05 ± 2.5e-05				
A15U A52C G59A C70A	< 1e-05				
U45A G59U C70G	< 1e-05	< 1e-05			
A12U C68U	0.000326 ± 3.4e-05	0.00957 ± 0.0013	0.000964 ± 9.8e-05	0.00195 ± 0.00021	0.0112 ± 0.002
G32C U49A	< 1e-05	< 1e-05	< 1e-05	< 1e-05	

From the supplement of paper PMC7125110
